Laboratory results reported in publication PMC11208146, “Molecular basis for transposase activation by a dedicated AAA+ ATPase” (Nature, 2024).
Numbering of substitutions follows the chain as printed. Numbers in names are those of the source. Where “and” joins values, the source holds several entries; their conditions need not be identical. Identical values can stand only once.

B1: IstB ATPase, wild type, full length (IS5376, Geobacillus stearothermophilus) (enzyme, UniProt Q45619 1-251, looked up)
chain: MKERIHEYCHRLHLPVMAERWSAMAEYASTHNISYSEFLFRLLEAEIVEKQARSIQTLIKLSKLPYRKTIDTFDFTAQPSVDERRIRELLTLSFIDRKENILFLGPPGIGKTHLAISIGMEAIARGYKTYFITAHDLVNQLRRADQEGKLEKKLRVFVKPTVLIIDEMGYLKLDPNSAHYLFQVIARRYEHAPIILTSNKSFGEWGEIVGDSVLATAMLDRLLHHSIIFNLKGESYRLREKRLQEEKQKDQ
notes: IstB, AAA+ ATPase of the IS21 family member IS5376, Geobacillus stearothermophilus, full length; Tag cleaved on-column with PreScission protease; Assembles into a pentamer of dimers (decamer) on DNA with ATP; also called IstB WT; IstB AAA+ ATPase regulator; source: E. coli BL21 codon-plus (DE3) RIL, purified (Ni-Sepharose, amylose resin, gel filtration); not shown: His6, N-terminal, cleaved; MBP, …
B2: IstB E167Q (Walker B mutant) (enzyme, Geobacillus stearothermophilus, UniProt Q45619 1-251, looked up)
chain: B1 chain with E167Q
notes: IstB, AAA+ ATPase of IS5376, Geobacillus stearothermophilus, with the Walker B mutation E167Q; The methods describe only the purification of full-length IstB (His6-MBP tag, cleaved); also called WB; source: purified

Assays:
[1] = molecular target: the molecule itself; test: cryo-EM structure; IstB wild type with a 60-mer duplex DNA (6.5:1) and 1 mM ATP; 20 mM HEPES pH 7.5, 150 mM NaCl, 5 mM MgCl2, 1 mM DTT; 3.2 Å
[2] = molecular target: the molecule itself; test: cryo-EM structure; IstA pre-incubated with strand-transfer-complex DNA (3.3:1), then IstB E167Q (5:1 to IstA), 37 °C; 20 mM HEPES pH 7.5, 150 mM NaCl, 5 mM MgCl2, 1 mM ATP, 1 mM DTT; 3.6 Å

Row | Protein | stoichiometry N [1] | stoichiometry N [2]
1 | B1 | 10 and 8 | 
2 | B2 |  | 10 and 20
